Numbering of substitutions follows the chain as printed.
B1: A-014 (scFv format) (scFv, V domains shown)
VH: QVQLVQSGAEVKKPGASVKVSCKASGYTFNDYYIHWVRQAPGQGLEWMGWFNPSTGGANYAQKFQGRVTMTRDTSISTAYLEVSSLRSDDTAVYYCARGNSPDLDYWGQGTLVTVSS
VL: DIQMTQSPDSLTVSLGERATINCKSSQSLLHSSNNKNYLAWYQQRPGQPPKLLIYWASTRQSGVPDRFSGSGSGTDFTLTINSLQADDMAVYYCQQYYTTTPNTFGQGTKLEIK
notes: scFv
B2: A-026 (scFv format) (scFv, V domains shown)
VH: QVQLQESGPGLVKPSQTLSLTCTVSGGSISSGGYYWSWIRQHPGKGLEWIGYIYYSGSTYYNPSLKSRVTISVDTSKNQFSLKLSSVTAADTAVYYCASWSLGTSNHGWFDPWGQGTLVTVSS
VL: QSVLTQPPSASGTPGQRVTISCSGSSSNIGSNTVNWYQQLPGTAPKLLISDNNNRPSGVPDRFSGSKSGTSASLAITGLQAEDEADYYCQSYDSNLSGWVFGGGTKLTVL
notes: scFv
B3: A-009 (scFv format) (scFv, V domains shown)
VH: QVQLVQSGAEVKKPGSSVKVSCKASGGTFSSYAISWVRQAPGQGLEWMGGIIPIFGTANYAQKFQGRVTITADESTSTAYMELSSLRSEDTAVYYCARGRGFGELYFDYWGQGTLVTVSS
VL: ETTLTQSPATLSVSPGERATLSCRASQGVRSNIAWYQQKPGQAPRLLIYDSSTRATGIPARFSGSGSGTEFTLTISSLQSEDFAVYSCQQYKNWPRTFGQGTKVEIK
notes: scFv
B4: A-025 (scFv format) (scFv, V domains shown)
VH: B3 VH with S84T, R100G, G101W, F102L, G103R, E104Q, L105N, Y106W, Y109P
VL: SSELTQDPAVSVALGQTVRITCQGDSLRSYYASWYQQKPGQAPVLVIYGKNNRPSGIPDRFSGSSSGNTASLTITGAQAEDEADYYCNSRDSSGNHPRVFGGGTKLTVL
notes: scFv
B5: A-007 (scFv format) (scFv, V domains shown)
VH: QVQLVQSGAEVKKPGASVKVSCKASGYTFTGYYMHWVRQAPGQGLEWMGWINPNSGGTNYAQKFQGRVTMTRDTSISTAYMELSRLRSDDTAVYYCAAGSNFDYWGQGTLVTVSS
VL: QSALTQPASVSGSPGQSITIACTGSSSDIGSFSYVSWYQQRPGKAPTLIIYGVNNRPLGVSRRFSGSKSGNTASLSISGLQAEDEADYYCSSYTRRSTVIFGGGTKLTVL
notes: scFv
B6: A-022 (scFv format) (scFv, V domains shown)
VH: EVQLLESGPGLVKPSQTLSLTCTVSGGSISSGGYYWSWIRQHPGKGLEWIGYIYYSGSTYYNPSLKSRVTISVDTSKNQFSLKLSSVTAADTAVYYCARASRSTDYYFDYWGQGTLVTVSS
VL: QPGLTQPPSMSYGLGQTATLTCTGNRNNIGDQGAAWLQQHQGHPPKLLSYRNNNGPSGISERLSASRSGNTASLTISGLQPEDEADYYCSAWDSSLRAWVFGGGTKLTVL
notes: scFv
B7: A-008 (scFv format) (scFv, V domains shown)
VH: QLQLQESGPGLVKPSETLSLTCTVSGGSISSSGYYWGWIRQPPGKGLEWIGSIYYSGSTYYNPSLKSRVTISVDTSKNQFSLKLSSVTAADTAVYYCARHRVRFGEFDAFDIWGQGTMVTVSS
VL: QAVLTQPPSVSGAPGERVTLSCTGTSSNVGADFDVHWYQQFPGTAPRLLIFGSDNRPSGVPDRFSGSKSGTSASLAITGLQVEDEADYYCQAYDVRLSGWVFGGGTKLTVL
notes: scFv
B8: A-016 (scFv format) (scFv, V domains shown)
VH: QVQLQESGAEVKKPGASVKVSCKASGYTFTGYYMHWVRQAPGQGLEWMGGIIPIFGTANYAQKFQGRVTITADESTSTAYMELSSLRSEDTAVYYCAGAGMELTRSGAYYYYGMDVWGQGTTVTVSS
VL: QSALTQPASVSGSPGQSITISCTGTSSDIGGYTFVSWYQQHPGKAPKVMIHDVNNRPSGISNRFSGSKSGNTASLTISGLQAEDEADYYCSSVTSTNTYVFGTGTKVTVL
notes: scFv
B9: A-010 (scFv format) (scFv, V domains shown)
VH: QVQLVQSGAEVKKPGASVKVSCKASGYTFTSYGISWVRQAPGQGLEWMGWISAYNGNTNYAQKLQGRVTMTTDTSTSTAYMELRSLRSDDTAVYYCARVPAWSGQFDYWGQGTLVTVSS
VL: QSALTQPASVSGSPGQSITISCTGSSSDVGGYNYVSWYQQYPGKAPKLMIYDVRSRPSGVSNRFSGSKSGNTASLTISGLQAEDEADYYCTSYTSSNTLVIFGGGTKVTVL
notes: scFv
B10: A-021 (scFv format) (scFv, V domains shown)
VH: B9 VH
VL: QSALTQPASVSGSPGQSITISCTGTSSDVGGYNYVSWYQQHPGKAPKLMIYEVTNRPSGVSDRFSGSKSANTASLTISELQAEDEAVYYCNSYTSGPTYVLFGGGTQLTVL
notes: scFv
B11: A-024 (scFv format) (scFv, V domains shown)
VH: QMQLVQSGAEVKKPGSSVKVSCKASGGTFSSYAISWVRQAPGQGLEWMGWISAYNGNTNYAQKLQGRVTMTTDTSTSTAYMELRSLRSDDTAVYYCASLGSYGYTGAFDIWGQGTMATVSS
VL: B9 VL with S25T, Y41H, D52E, R54S, S55N, T91S, N97S, I101V, V108L
B12: A-015 (scFv format) (scFv, V domains shown)
VH: not shown
VL: QPVLTQSPSASASLGASVKLTCTLSSGHTNYAIAWRQQQPGKAPRYLMLLNSDGSHTRGGGIPDRFSGSSSGAERYLTISSLQSEDEADYYCMIWHNNAWVFGGGTKLAVL
notes: scFv
B13: A-013 (scFv format) (scFv, V domains shown)
VH: EVQLVESGGGLIQPGGSLRLSCAASGFTVSSNYMSWVRQAPGKGLEWVSVIYSGGSTYYADSVKGRFTISRDNSKNTLYLQMNSLRAEDTAVYYCARGNPYYYGDLQVNFDYWGQGTLVTVSS
VL: QAVVTQEPSLTVSPGGTVTLTCASSTGAVTSAYYPNWFQQKPGQAPRALIYSTSNKHSWTPARFSGSLLGGKAALTLSGVQPEDEADYYCLLYYGGAWVFGGGTKLTVL
notes: scFv
B14: A-017 (scFv format) (scFv, V domains shown)
VH: QVQLVQSGAEVKKPGASVKVSCKASGYTFTGYYMHWVRQAPGQGLEWMGWINPNSGNTGYAQKFQGRVTMTRNTSISTAYMELSSLRSEDTAVYYCARGGQQQLVLDDYWGQGTLVTVSS
VL: DIVLTQSPASLSASVGDRITITCQASQDIRHHLNWFQHKPGKAPKLLISDSSNLETGVPSRFSGSGSGTDFSFTISRLQPEDIATYYCQQYDSLPRTFGQGTKLEIK
notes: scFv
B15: A-019 (scFv format) (scFv, V domains shown)
VH: B14 VH
VL: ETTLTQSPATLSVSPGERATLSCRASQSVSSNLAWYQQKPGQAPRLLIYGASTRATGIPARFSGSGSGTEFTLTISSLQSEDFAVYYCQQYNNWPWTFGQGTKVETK
notes: scFv
B16: A-011 (scFv format) (scFv, V domains shown)
VH: QVQLVESGGGVVQPGRSLRLSCAASGFTFSSYAMHWVRQAPGKGLEWVAVISYDGSNKYYADSVKGRFTISRDNSKNTLYLQMNSLRAEDTAVYYCAEGGALNYYGMDVWGQGTTVTVSS
VL: SSELTQDPGVSVALGQTVRITCQGDSLRHFYATWYQQKPGQAPILVIYGKNNRPSGIPDRFSGSSSEDTASLTITGAQAEDEADYYCQSRDPRNNHLIFGGGTKLIVL
notes: scFv
B17: A-023 (scFv format) (scFv, V domains shown)
VH: QVQLVQSGAEVKKPGSSVKVSCKASGGTFSSYAISWVRQAPGQGLEWMGGIIPIFGTANYAQKFQGRVTITADESTSTAYMELSSLRSEDTAVYYCARPKYSSGWFYYYGMDVWGQGTTVTVSS
VL: QSVLTQPPSVSAAPGQKVTISCSGSSSNIGNNYVSWYQQLPGTAPKLLIYDNNKRPSGIPDRFSGSKSGTSATLGITGLQTGDEADYYCGTWDSSLSVVFGGGTKLTVL
notes: scFv
B18: A-003 (scFv format) (scFv, V domains shown)
VH: VQLVQSGAEVKKPGSSVKVSCKASGGTFSSYAISWVRQAPGQGLEWMGGIIPIFGTANYAQKFQGRVTITADESTSTAYMELSSLRSEDTAVYYCASPRIQLWAAGGFDYWGQGTLVTVSS
VL: QSALTQPASVSGSPGQSITISCTGTSSDVGGYNLVSWYQQHPGKAPKLMIYDVSNRPSGVSNRFSGSKSGNTASLTISGLQAEDEADYYCSSFTTSTTLVFGGGTKLTVL
notes: scFv

Target: T1, extracellular domain (ECD) of human IGSF11 (VSIG3), biotinylated (human, UniProt Q5DX21 23-241, biotinylated (site not stated))
T1 construct: also called human IGSF11 protein
T1 sequence: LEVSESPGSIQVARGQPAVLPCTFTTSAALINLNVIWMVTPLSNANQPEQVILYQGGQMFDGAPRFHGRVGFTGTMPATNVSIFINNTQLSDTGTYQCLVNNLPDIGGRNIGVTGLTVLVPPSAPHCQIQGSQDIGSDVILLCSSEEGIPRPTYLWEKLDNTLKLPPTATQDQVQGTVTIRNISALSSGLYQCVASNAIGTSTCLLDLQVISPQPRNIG
Assay: ELISA, scFv; RFU grade (*** >1.0, ** 0.5-1.0, * 0.1-0.5)

Compared with B1, B2 is higher in “relative fluorescent units (RFU), ELISA” value: 0.5 to 1 rfu for the first, over 1 rfu for the second.

Compared with B3, B4 is lower in “relative fluorescent units (RFU), ELISA” value: 0.5 to 1 rfu for the first, 0.1 to 0.5 rfu for the second.

B5 and B6 fall in the same range of “relative fluorescent units (RFU), ELISA” value: 0.5 to 1 rfu for the first, 0.5 to 1 rfu for the second.

B7 and B8 cannot be ordered by “relative fluorescent units (RFU), ELISA” value: over 1 rfu for the first, over 1 rfu for the second.

B9 and B10 fall in the same range of “relative fluorescent units (RFU), ELISA” value: 0.5 to 1 rfu for the first, 0.5 to 1 rfu for the second.

B11 and B12 fall in the same range of “relative fluorescent units (RFU), ELISA” value: 0.5 to 1 rfu for the first, 0.5 to 1 rfu for the second.

B13 and B14 fall in the same range of “relative fluorescent units (RFU), ELISA” value: 0.5 to 1 rfu for the first, 0.5 to 1 rfu for the second.

First: B15
Second: B16
The “relative fluorescent units (RFU), ELISA” value of the first is higher: over 1 rfu for the first, 0.1 to 0.5 rfu for the second.

Compared with B17, B18 is lower in “relative fluorescent units (RFU), ELISA” value: 0.5 to 1 rfu for the first, 0.1 to 0.5 rfu for the second.

Target: T2, extracellular domain (ECD) of murine IGSF11, biotinylated (mouse, UniProt P0C673 23-240, biotinylated (site not stated))
T2 construct: also called Mouse IGSF11; murine IGSF11 protein
T2 sequence: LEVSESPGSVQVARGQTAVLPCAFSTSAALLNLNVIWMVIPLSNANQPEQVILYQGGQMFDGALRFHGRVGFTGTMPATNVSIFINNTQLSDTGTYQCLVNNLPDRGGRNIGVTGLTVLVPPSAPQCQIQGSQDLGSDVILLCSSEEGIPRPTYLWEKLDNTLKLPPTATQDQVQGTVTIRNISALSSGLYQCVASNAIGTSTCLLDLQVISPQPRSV
Assay: as above

Compared with B1, B2 is higher in “relative fluorescent units (RFU), ELISA” value: 0.1 to 0.5 rfu for the first, over 1 rfu for the second.

B3 and B4 fall in the same range of “relative fluorescent units (RFU), ELISA” value: 0.1 to 0.5 rfu for the first, 0.1 to 0.5 rfu for the second.

First: B5
Second: B6
The “relative fluorescent units (RFU), ELISA” value of the first is lower: 0.5 to 1 rfu for the first, over 1 rfu for the second.

Compared with B7, B8 is lower in “relative fluorescent units (RFU), ELISA” value: over 1 rfu for the first, 0.5 to 1 rfu for the second.

Compared with B9, B10 is lower in “relative fluorescent units (RFU), ELISA” value: 0.5 to 1 rfu for the first, 0.1 to 0.5 rfu for the second.

First: B11
Second: B12
The “relative fluorescent units (RFU), ELISA” value of the first is lower: 0.1 to 0.5 rfu for the first, 0.5 to 1 rfu for the second.

Compared with B13, B14 is lower in “relative fluorescent units (RFU), ELISA” value: 0.5 to 1 rfu for the first, 0.1 to 0.5 rfu for the second.

Compared with B15, B16 is higher in “relative fluorescent units (RFU), ELISA” value: 0.5 to 1 rfu for the first, over 1 rfu for the second.

B17 and B18 fall in the same range of “relative fluorescent units (RFU), ELISA” value: 0.1 to 0.5 rfu for the first, 0.1 to 0.5 rfu for the second.
